This is an account of results in US20240034804A1 (BIORAY PHARMACEUTICAL, published 2024).

Test [1] concerns the target SIRPα protein (Acrobiosystems, Cat. No. SIA-H5225), V1 genotype (human) (UniProt P78324). In words: BLI (Octet Red96), SIRPα captured on H1S1K biosensor, antibody as analyte, 1:1 fit.
Test [2] deals with T1, biotin-labeled SIRPα (Acrobiosystems, Cat. No. CDA-H82F2), V1 genotype (human, UniProt P78324 31-370, biotin-labeled (site not stated)).
T1 construct: Bought protein; also called SIRPα (V1)
Description: competition ELISA, blocking of biotin-labeled SIRPα binding to coated CD47-Fc (competitor CD47-Fc). As for the experimental part: (§1) 96-well plates were coated with CD47-Fc (manufacturer: Acrobiosystems, Cat. No. CD7-H5256) at 4° C. overnight. Plates were washed and blocked with 1% BSA-PBST blocking solution. […] After a 1 h incubation at 37° C., plates were washed and HRP-labeled streptavidin (manufacturer: Abcam, Cat. No.: ab7403) was added. After a 0.5 h incubation at 37° C., plates were washed and TMB solution was added. After a 0.5 h incubation at room temperature in the dark, the reaction was terminated by adding 2 N H₂SO₄. Absorbance was read at 450 nm on a microplate reader. IgG (manufacturer: GenScript) was used as the control.
For orientation: ELISA stands for enzyme-linked immunosorbent assay.

In test [3] the target is T2, SIRPα protein (Acrobiosystems, Cat. No. SIA-H5225), V1 genotype (human, UniProt P78324 31-370).
T2 construct: Bought protein; also called recombinant SIRPα protein; antigen SIRPα
Description: ELISA, coated SIRPα (SIA-H5225). The procedure: The plates were then blocked with 1% BSA-PBS blocking solution for 1 h at 37° C. Plates were washed with PBST. The humanized antibodies were diluted to different concentrations (3-fold serially diluted from 66.7 nM, 11 concentration gradients in total) and added to the plates. After a 1 h incubation at 37° C., plates were washed and HRP-labeled goat anti-human IgG (manufacturer: Abcam, Cat. No. Ab98595, 1:10000 dilution) was added. After a 0.5 h incubation at 37° C., plates were washed and TMB solution was added. After a 5 min incubation at room temperature in the dark, the reaction was terminated by adding 2 N H₂SO₄. Absorbance was read at 450 nm on a microplate reader.

For test [4], the target named is T1, biotin-labeled SIRPα (Acrobiosystems, …). Description: competition ELISA (FIG. 4B), blocking of biotin-labeled SIRPα (V1) binding to coated CD47-Fc.
In test [5] the target is membrane SIRPα on THP-1 cells (human myeloid leukemia monocytes endogenously expressing SIRPα) (human) (UniProt P78324). In words: cell-based or functional assay.
The target of test [6] is biotin-labeled SIRPα (V2) (Acrobiosystems, Cat. No. SI2-H82W8) (human, UniProt P78324 31-370, biotin-labeled (site not stated)). Description: competition ELISA (FIG. 4C), blocking of biotin-labeled SIRPα (V2) binding to coated CD47-Fc. As for the experimental part:
as §1
(§2) The antibodies were 3-fold serially diluted from 200 nM and a total of nine concentration gradients were prepared.

Test [7] has as its target biotin-labeled SIRPα (V8) (Acrobiosystems, Cat. No. SI8-H82W6) (human, UniProt P78324 31-370, biotin-labeled (site not stated)). Description: competition ELISA (FIG. 4D), blocking of biotin-labeled SIRPα (V8) binding to coated CD47-Fc. As for the experimental part: as §1, §2
The target of test [8] is T1, biotin-labeled SIRPα (Acrobiosystems, …). In words: competition ELISA (FIG. 4A), blocking of biotin-labeled SIRPα (V1) binding to coated CD47-Fc; FIG. 4A, run beside KWAR23. As for the experimental part:
as §1
(§3) The antibodies were 2-fold serially diluted from 83.4 nM and a total of nine concentration gradients were prepared.

Test [9] shares this target. In words: competition ELISA (FIG. 4B), blocking of biotin-labeled SIRPα (V1) binding to coated CD47-Fc; FIG. 4B, run beside 18D5 and 1H9. The procedure:
as §1, §3

The target in test [10] is T2, SIRPα protein (Acrobiosystems, Cat. No. …). Description: BLI (Octet Red96), SIRPα captured on H1S1K biosensor, antibody as analyte, 1:1 fit. In general terms: In BLI a coated tip is dipped into the sample, and binding shifts an interference pattern.

As a reminder, the Kd is the equilibrium constant for the complex coming apart. Take KWAR23 (antibody): in test [1], the Kd stood at 0.0509 nM.

B1: #4 antibody (humanized anti-SIRPα antibody) (antibody, V domains shown)
VH: EVQLVQSGAEVKKPGATVKISCRGSGFNIKDYYIQWVQQAPGKGLEWMGWIDPENGDTKYAPKFQGRVTITADTSTDTAYMELSSLRSEDTAVYYCYAKGPYWGQGTTLTVSS
VL: DIVMTQSPDSLAVSLGERATINCKSSQSLFYSSNQKNFLAWYQQKPGQPPKLLIYWASTRESGVPDRFTGSGSGTDFTLTISSVKAEDLAVYYCQQYYSYPPTFGGGTKLEIK
notes: Full antibody as tested
By IC50 is commonly meant the point on the concentration scale where inhibition reaches its midpoint. Higher therefore signals a need for much substance. The EC50 is the concentration at which the effect is half-maximal. A low value points to higher potency in that assay. B1 yielded an IC50 in test [2] of 6.03 nM. The molecule also yielded an EC50 in test [3] of 1.83 nM.

B2: #11 antibody (humanized anti-SIRPα antibody) (antibody, V domains shown)
VH: QVTLKESGPVLVKPTETLTLTCTVSGFSLSSHGVHWIRQPPGKALEWLAVIWSDGSTTYNSTLKSRLTISKDTSKSQVVLTMTNMDPVDTATYYCARHGNYHYNMDYWGQGTLVTVSS
VL: DIQLTQSPSFLSASVGDRVTITCRTSSRVNSGYLHWYQQKPGKAPKLLIYSTSTLASGVPSRFSGSGSGTEFTLTISSLQPEDFATYYCQQYSSYPWTFGGGTKLEIK
notes: Full antibody as tested
For B2, in test [2], the IC50 is 0.209 nM. Further, the EC50 in test [3] turned out to be 0.464 nM.

B3: #13 antibody (humanized anti-SIRPα antibody) (antibody, V domains shown)
VH: QVQLVQSGSELKKPGASVKVSCKASGYTFTDYSIHWVRQAPGQGLEWMGWINTETGEPTYADDFKGRFVFSLDTSVSTAYLQICSLKAEDTAVYYCSRGPLYRYDGYGLEYWGQGTLVTVSS
VL: DIVMTQSPDSLAVSLGERATINCKASQSVSNDVAWYQQKPGQPPKLLIYYASNRCTGVPDRFSGSGSGTDFTLTISSLQAEDVAVYYCHQDYISPYTFGGGTKLEIK
notes: Full antibody as tested
Consider B3, for which, in test [2], the IC50 came to 1.5 nM. This molecule also displayed an EC50 in test [3] of 0.952 nM.

B4: 1H9 (antibody, V domains shown)
VH: QVQLQQPGAERVKPGASVKMSCKASGYTFTSYWITWVKQRPGQGLEWIGDIYPGSGSTNHIEKFKSKATLTVDTSSNTAYMQLSRLTSEDSAVYYCATGYGSSYGYFDYWGQGTTLTVSS
VL: DIQMTQSPASLSASVGETVTITCRASENIYSYLAWYQQKQGKSPQLLVYTAKTLAEGVPSRFSGSGSGTQFSLKINSLQPEDFGNYYCQHQYGPPFTFGSGTRLVIK
With B4, the IC50 in test [4] was 4.2 nM.

B5: KWAR23 (antibody, V domains shown)
VH: EVQLQQSGAELVKPGASVKLSCTASGFNIKDYYIHWVQQRTEQGLEWIGRIDPEDGETKYAPKFQDKATITADTSSNTAYLHLSSLTSEDTAVYYCARWGAYWGQGTLVTVSS
VL: QIVLTQSPAIMSASPGEKVTLTCSASSSVSSSYLYWYQQKPGSSPKLWIYSTSNLASGVPARFSGSGSGTSYSLTISSMEAEDAASYFCHQWSSYPRTFGAGTKLELK
For the molecule B5, the Endocytosis rate (%) in test [5] is 34.7%. In addition, the IC50 amounted to 6.4 nM in [6] and 10.8 nM in test [7].

B6: 18D5 (antibody, V domains shown)
VH: QVQLQQPGAELVRPGSSVKLSCKASGYTFTSYWVHWVKQRPIQGLEWIGNIDPSDSDTHYNQKFKDKASLTVDKSSSTAYMQLSSLTFEDSAVYYCVRGGTGTMAWFAYWGQGTLVTVSA
VL: DVVMTQTPLSLPVSLGDQASISCRSSQSLVHSYGNTYLYWYLQKPGQSPKLLIYRVSNRFSGVPDRFSGSGSGTDFTLKISRVEAEDLGVYFCFQGTHVPYTFGSGTKLEIK
For B6, the IC50 in test [4] is 4.1 nM.

B7: #14 antibody (humanized anti-SIRPα antibody) (antibody, human IgG1, kappa, N297A, V domains shown)
VH: QVQLQESGPGLVKPSQTLSLTCTVSGGSISSGYYWSWIRQHPGKGLEWIGYISYDGSRYNNPSLKNRVTISVDTSKNQFSLKLSSVTAADTAVYYCAREEYANYFAYWGQGTTVTVSS
VL: DIVMTQSPDSLAVSLGERATINCKSSQSLFYSSNQKNFLAWYQQKPGQPPKLLIYWASTRESGVPDRFTGSGSGTDFTLTISSVKAEDLAVYYCQQYYSYPPTFGQGTKLEIKR
As for B7, the IC50 in [6] was 7.8 nM; in [8], 3.4 nM; in test [7], 11.5 nM; in test [9], 4.4 nM; in [2], 0.132 nM. In addition, the EC50 in [3] was 0.683 nM. In addition, the Kd in [10] is 0.0217 nM.
